The source of these data is US20140206609A1 (Sanofi, published 2014).

Common to all, as to test: cell-based or functional assay
One assay deals with human GLP-1 receptor (human, UniProt P43220 24-463).
Another assay has as its target T1, human GIP receptor (human, UniProt P48546 22-466).
T1 sequence (looked up): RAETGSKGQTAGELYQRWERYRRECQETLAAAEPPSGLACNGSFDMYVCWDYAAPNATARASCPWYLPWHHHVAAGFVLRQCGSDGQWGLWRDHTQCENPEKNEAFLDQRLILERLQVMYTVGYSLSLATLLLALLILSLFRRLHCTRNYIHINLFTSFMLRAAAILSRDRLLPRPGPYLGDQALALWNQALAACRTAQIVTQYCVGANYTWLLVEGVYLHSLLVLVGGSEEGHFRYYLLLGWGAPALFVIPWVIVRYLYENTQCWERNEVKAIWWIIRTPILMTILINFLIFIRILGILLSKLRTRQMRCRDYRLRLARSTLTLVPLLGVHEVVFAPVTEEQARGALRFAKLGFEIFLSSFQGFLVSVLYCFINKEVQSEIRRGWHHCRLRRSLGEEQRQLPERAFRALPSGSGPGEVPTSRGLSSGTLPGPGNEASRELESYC

The next assay addresses human glucagon receptor (human, UniProt P47871 26-477).

*1 amine or outer side, *2 acyl side, *3 side chain or, on linkers, in order; H or OH if unused. Where no end group is shown, it is not given here. Side-chain parts run from the residue outwards. [ ]: non-standard residue; d: D form. The star is where a group is joined. γGlu = O=C(O)[C@H](CCC(=O)[*:2])N[*:1]; Palmitoyl = CCCCCCCCCCCCCCCC(=O)*; Aib = CC(C)(N)C(=O)O

human glucagon receptor, sequence (P47871 26-477): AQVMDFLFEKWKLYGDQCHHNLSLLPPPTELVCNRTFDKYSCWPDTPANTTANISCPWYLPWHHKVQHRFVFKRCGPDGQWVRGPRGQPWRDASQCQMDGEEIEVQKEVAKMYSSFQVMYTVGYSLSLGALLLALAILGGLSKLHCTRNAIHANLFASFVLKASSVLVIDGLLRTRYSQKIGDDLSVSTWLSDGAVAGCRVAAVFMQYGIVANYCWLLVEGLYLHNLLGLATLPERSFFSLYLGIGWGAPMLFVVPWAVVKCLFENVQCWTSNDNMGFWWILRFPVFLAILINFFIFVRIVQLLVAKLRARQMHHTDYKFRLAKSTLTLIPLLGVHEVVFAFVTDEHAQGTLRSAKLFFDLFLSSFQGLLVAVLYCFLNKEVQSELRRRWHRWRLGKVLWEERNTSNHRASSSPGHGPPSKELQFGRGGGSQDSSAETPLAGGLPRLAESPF

B1: SEQ ID NO: 25 (peptide)
peptide: Y[Aib]EGTFTSDLSIQK([γGlu-Palmitoyl])ESRAAQEFIEWLKNTGPSSGAPPPS-NH2
modifications: N-terminus assumed
SMILES: CCCCCCCCCCCCCCCC(=O)N[C@@H](CCC(=O)NCCCC[C@H](NC(=O)[C@H](CCC(N)=O)NC(=O)[C@@H](NC(=O)[C@H](CO)NC(=O)[C@H](CC(C)C)NC(=O)[C@H](CC(=O)O)NC(=O)[C@H](CO)NC(=O)[C@@H](NC(=O)[C@H](Cc1ccccc1)NC(=O)[C@@H](NC(=O)CNC(=O)[C@H](CCC(=O)O)NC(=O)C(C)(C)NC(=O)[C@@H](N)Cc1ccc(O)cc1)[C@@H](C)O)[C@@H](C)O)[C@@H](C)CC)C(=O)N[C@@H](CCC(=O)O)C(=O)N[C@@H](CO)C(=O)N[C@@H](CCCNC(=N)N)C(=O)N[C@@H](C)C(=O)N[C@@H](C)C(=O)N[C@@H](CCC(N)=O)C(=O)N[C@@H](CCC(=O)O)C(=O)N[C@@H](Cc1ccccc1)C(=O)N[C@H](C(=O)N[C@@H](CCC(=O)O)C(=O)N[C@@H](Cc1c[nH]c2ccccc12)C(=O)N[C@@H](CC(C)C)C(=O)N[C@@H](CCCCN)C(=O)N[C@@H](CC(N)=O)C(=O)N[C@H](C(=O)NCC(=O)N1CCC[C@H]1C(=O)N[C@@H](CO)C(=O)N[C@@H](CO)C(=O)NCC(=O)N[C@@H](C)C(=O)N1CCC[C@H]1C(=O)N1CCC[C@H]1C(=O)N1CCC[C@H]1C(=O)N[C@@H](CO)C(N)=O)[C@@H](C)O)[C@@H](C)CC)C(=O)O
With B1, in the assay with human GLP-1 receptor, the “EC50 hGLP-1 R [pM]” value was 9.5 pM. Also, in the assay with human GIP receptor, the “EC50 hGIP R [pM]” value was 73.6 pM. Besides, the “EC50 hGLUC R [pM]” value with human glucagon receptor came to 20500 pM.

B2: SEQ ID NO: 24 (peptide)
peptide: Y[Aib]EGTFTSDLSIQK([γGlu-Palmitoyl])ESRAA[Aib]DFIEWLKNTGPSSGAPPPS-NH2
modifications: N-terminus assumed
SMILES: CCCCCCCCCCCCCCCC(=O)N[C@@H](CCC(=O)NCCCC[C@H](NC(=O)[C@H](CCC(N)=O)NC(=O)[C@@H](NC(=O)[C@H](CO)NC(=O)[C@H](CC(C)C)NC(=O)[C@H](CC(=O)O)NC(=O)[C@H](CO)NC(=O)[C@@H](NC(=O)[C@H](Cc1ccccc1)NC(=O)[C@@H](NC(=O)CNC(=O)[C@H](CCC(=O)O)NC(=O)C(C)(C)NC(=O)[C@@H](N)Cc1ccc(O)cc1)[C@@H](C)O)[C@@H](C)O)[C@@H](C)CC)C(=O)N[C@@H](CCC(=O)O)C(=O)N[C@@H](CO)C(=O)N[C@@H](CCCNC(=N)N)C(=O)N[C@@H](C)C(=O)N[C@@H](C)C(=O)NC(C)(C)C(=O)N[C@@H](CC(=O)O)C(=O)N[C@@H](Cc1ccccc1)C(=O)N[C@H](C(=O)N[C@@H](CCC(=O)O)C(=O)N[C@@H](Cc1c[nH]c2ccccc12)C(=O)N[C@@H](CC(C)C)C(=O)N[C@@H](CCCCN)C(=O)N[C@@H](CC(N)=O)C(=O)N[C@H](C(=O)NCC(=O)N1CCC[C@H]1C(=O)N[C@@H](CO)C(=O)N[C@@H](CO)C(=O)NCC(=O)N[C@@H](C)C(=O)N1CCC[C@H]1C(=O)N1CCC[C@H]1C(=O)N1CCC[C@H]1C(=O)N[C@@H](CO)C(N)=O)[C@@H](C)O)[C@@H](C)CC)C(=O)O
Consider B2, for which the “EC50 hGLP-1 R [pM]” value in the assay with human GLP-1 receptor worked out at 13.5 pM. In the assay with human GIP receptor, the “EC50 hGIP R [pM]” value was found to be 23.5 pM. In the assay with human glucagon receptor, the “EC50 hGLUC R [pM]” value came to 38900 pM.

B3: SEQ ID NO: 26 (peptide)
peptide: Y[Aib]EGTFTSDLSIQK([γGlu-Palmitoyl])EKRAAQEFIEWLKNTGPSSGAPPPS-NH2
modifications: N-terminus assumed
SMILES: CCCCCCCCCCCCCCCC(=O)N[C@@H](CCC(=O)NCCCC[C@H](NC(=O)[C@H](CCC(N)=O)NC(=O)[C@@H](NC(=O)[C@H](CO)NC(=O)[C@H](CC(C)C)NC(=O)[C@H](CC(=O)O)NC(=O)[C@H](CO)NC(=O)[C@@H](NC(=O)[C@H](Cc1ccccc1)NC(=O)[C@@H](NC(=O)CNC(=O)[C@H](CCC(=O)O)NC(=O)C(C)(C)NC(=O)[C@@H](N)Cc1ccc(O)cc1)[C@@H](C)O)[C@@H](C)O)[C@@H](C)CC)C(=O)N[C@@H](CCC(=O)O)C(=O)N[C@@H](CCCCN)C(=O)N[C@@H](CCCNC(=N)N)C(=O)N[C@@H](C)C(=O)N[C@@H](C)C(=O)N[C@@H](CCC(N)=O)C(=O)N[C@@H](CCC(=O)O)C(=O)N[C@@H](Cc1ccccc1)C(=O)N[C@H](C(=O)N[C@@H](CCC(=O)O)C(=O)N[C@@H](Cc1c[nH]c2ccccc12)C(=O)N[C@@H](CC(C)C)C(=O)N[C@@H](CCCCN)C(=O)N[C@@H](CC(N)=O)C(=O)N[C@H](C(=O)NCC(=O)N1CCC[C@H]1C(=O)N[C@@H](CO)C(=O)N[C@@H](CO)C(=O)NCC(=O)N[C@@H](C)C(=O)N1CCC[C@H]1C(=O)N1CCC[C@H]1C(=O)N1CCC[C@H]1C(=O)N[C@@H](CO)C(N)=O)[C@@H](C)O)[C@@H](C)CC)C(=O)O
On to B3, for which, in the assay with human GLP-1 receptor, the “EC50 hGLP-1 R [pM]” value is 4.9 pM. Besides, in the assay with human GIP receptor, the “EC50 hGIP R [pM]” value was 19.7 pM. For the same molecule, the “EC50 hGLUC R [pM]” value with human glucagon receptor stood at 8510 pM.

B4: SEQ ID NO: 23 (peptide)
peptide: Y[Aib]EGTFTSDLSIQK([γGlu-Palmitoyl])ESRAAQDFIEWLKNTGPSSGAPPPS-NH2
modifications: N-terminus assumed
SMILES: CCCCCCCCCCCCCCCC(=O)N[C@@H](CCC(=O)NCCCC[C@H](NC(=O)[C@H](CCC(N)=O)NC(=O)[C@@H](NC(=O)[C@H](CO)NC(=O)[C@H](CC(C)C)NC(=O)[C@H](CC(=O)O)NC(=O)[C@H](CO)NC(=O)[C@@H](NC(=O)[C@H](Cc1ccccc1)NC(=O)[C@@H](NC(=O)CNC(=O)[C@H](CCC(=O)O)NC(=O)C(C)(C)NC(=O)[C@@H](N)Cc1ccc(O)cc1)[C@@H](C)O)[C@@H](C)O)[C@@H](C)CC)C(=O)N[C@@H](CCC(=O)O)C(=O)N[C@@H](CO)C(=O)N[C@@H](CCCNC(=N)N)C(=O)N[C@@H](C)C(=O)N[C@@H](C)C(=O)N[C@@H](CCC(N)=O)C(=O)N[C@@H](CC(=O)O)C(=O)N[C@@H](Cc1ccccc1)C(=O)N[C@H](C(=O)N[C@@H](CCC(=O)O)C(=O)N[C@@H](Cc1c[nH]c2ccccc12)C(=O)N[C@@H](CC(C)C)C(=O)N[C@@H](CCCCN)C(=O)N[C@@H](CC(N)=O)C(=O)N[C@H](C(=O)NCC(=O)N1CCC[C@H]1C(=O)N[C@@H](CO)C(=O)N[C@@H](CO)C(=O)NCC(=O)N[C@@H](C)C(=O)N1CCC[C@H]1C(=O)N1CCC[C@H]1C(=O)N1CCC[C@H]1C(=O)N[C@@H](CO)C(N)=O)[C@@H](C)O)[C@@H](C)CC)C(=O)O
Turning to B4, the “EC50 hGLP-1 R [pM]” value with human GLP-1 receptor is 11.8 pM. In the assay with human GIP receptor, the “EC50 hGIP R [pM]” value amounted to 79.5 pM. In the assay with human glucagon receptor, the “EC50 hGLUC R [pM]” value came out at 19100 pM.
